B1: GhJAZ1 after deletion of Jas domain: GhJAZ1 mutant with Jas domain deleted, protein sequence SEQ ID No. 87 (protein)
chain: MSSCSESTAMKPARSPEKPSFAQTCNLLSQYLKEKGSFGDLSLGMTCNVEANGTPVVPPPTMNLFPLNDKSDDVCGRNGGNPKNLTSMDLFPQQAGLASKDDSPNKLEPQTAPMTIFYGGQVIVFNDFPANKAKEIMLLASNSSSQSNNSFNPIPFTSSIARSPIESSIGVPPTSKPVHPAQRAVPGNNSAAAPSLSGDNKSWLGLAAQSP
B2: GhJAZ9: cotton JAZ9 protein, sequence SEQ ID No. 2, highest homology to AtJAZ9 (protein)
chain: MERDFLGLNSNEPLAVVKDDVNTDKYKQIGFTKSSGIQWPFSNKVFAVPQLMNFNFAQGDKTKKTGYDSKVSPLFMPISTMDASELQKSFNHNWNGGGHFSLTDSHVQHNTNMFPASNQTISVSGSNPFVKNHFTTTGQNFPANTIKPQFLGGVPVTTPHSVLPTLGTVGGSVEPCAQTSGSPAQLTIFYAGEVNVFDDITPEKAQAIMFLAGNGSSMASNSAYPKPPVQTPILKPVQVDSVPANQLINTQLSFGMPSPLPVSSHAGMQSWSGSTSTEEQIICKASVPPTPSTPISKLESPNLVNTMGSDAATGMMPSVPQARKASLARFLEKRKGRIMSTASPYNLISKKSLDYATTMESNA
B3: GhJAZ1 after deletion of ZIM domain: GhJAZ1 mutant with ZIM domain deleted, protein sequence SEQ ID No. 85 (protein)
chain: MSSCSESTAMKPARSPEKPSFAQTCNLLSQYLKEKGSFGDLSLGMTCNVEANGTPVVPPPTMNLFPLNDKSDDVCGRNGGNPKNLTSMDLFPQQAGLASKDDSPNKLEPQTASSSQSNNSFNPIPFTSSIARSPIESSIGVPPTSKPVHPAQRAVPGDLPIARRASLHRFLEKRKDRITAKAPYQINNSAAAPSLSGDNKSWLGLAAQSP

Assays:
Assay type in all cases: binding, cotton
GhTPL = test: Yeast two hybrid with GhTPL
Experimental: (§1) The study on Arabidopsis had shown that the inhibition of JAZ protein on JA signaling was mainly achieved by inhibiting the transcription factor function of MYC, which had been experimentally verified by us in cotton. Based on the phylogenetic tree of Arabidopsis and cotton JAZs, we screened 6 cotton JAZs (GhJAZ1, GhJAZ7, GhJAZ9, GhJAZ10, GhJAZ11 and GhJAZ31), which were analyzed with GhMYC2, GhNINJA, GhTPL, GhHDA6, and GhCOI1 for yeast two hybrid. The amino acid sequence of GhJAZ1 was set forth in SEQ ID No. 4, and the corresponding encoding gene sequence was set forth in SEQ ID No. 39; the amino acid sequence of GhJAZ7 was set forth in SEQ ID No. 7, and the corresponding encoding gene sequence was set forth in SEQ ID No. 42; the amino acid sequence of GhJAZ9 was set forth in SEQ ID No. 2, and the corresponding encoding gene sequence was set forth in SEQ ID No. 37; the amino acid sequence of GhJAZ10 was set forth in SEQ ID No. 3, and the corresponding encoding gene sequence was set forth in SEQ ID No. 38; the amino acid sequence of GhJAZ11 was set forth in SEQ ID No. 5, and the corresponding encoding gene sequence was set forth in SEQ ID No. 40; and the amino acid sequence of GhJAZ31 was set forth in SEQ ID No. 9, and the corresponding encoding gene sequence was set forth in SEQ ID No. 44. The amino acid sequence of GhMYC2 was set forth in SEQ ID No. 71, and the corresponding encoding gene sequence was set forth in SEQ ID No. 72; the amino acid sequence of GhNINJA was set forth in SEQ ID No. 73, and the corresponding encoding gene sequence was set forth in SEQ ID No. 74; the amino acid sequence of GhTPL was set forth in SEQ ID No. 75, and the corresponding encoding gene sequence was set forth in SEQ ID No. 76; the amino acid sequence of GhHDA6 was set forth in SEQ ID No. 77, and the corresponding encoding gene sequence was set forth in SEQ ID No. 78; and the amino acid sequence of GhCOI1 was set forth in SEQ ID No. 79, and the corresponding encoding gene sequence was set forth in SEQ ID No. 80. […]

GhCOI1 = test: Yeast two hybrid with GhCOI1; details: in the presence of JA-Ile
Experimental: as §1

GhMYC2 [1] = test: Yeast two hybrid with GhMYC2
Experimental: as §1

GhMYC2 [2] = test: Luciferase experiment in tobacco leaves with GhMYC2; details: no fluorescence on the control
Source text: Method of the luciferase experiment: GhJAZ1 (corresponding encoding gene sequence set forth in SEQ ID No. 39) was subcloned into pCAMBIA-CLuc vector (Chen, H., et al. “Firefly Luciferase Complementation Imaging Assay for Protein-Protein Interactions in Plants.” Plant Physiology 146.2(2008):368-376.) between KpnI and SalI cleavage sites, and the transcription factors such as GhMYC2 (corresponding encoding gene sequence set forth in SEQ ID No. 72), GhNINJA (corresponding encoding gene sequence set forth in SEQ ID No. 74), and GhCOI1 (corresponding encoding gene sequence set forth in SEQ ID No. 80) were subcloned into pCAMBIA-NLuc (Chen, H., et al. “Firefly Luciferase Complementation Imaging Assay for Protein-Protein Interactions in Plants.” Plant Physiology 146.2(2008):368-376.) between KpnI and SalI cleavage sites, respectively. […] Luciferase substrates were applied at the infected leaves before taking images and placed in a dark room for at least 6 min to quench fluorescence, followed by observation on the Nightowl-II LB983 instrument, using IndigoBasic software under the luciferase-5 min setting conditions.

GhNINJA = test: Yeast two hybrid with GhNINJA
Experimental: as §1, with “44.” for “44. The amino acid sequence of GhMYC2 was set forth in SEQ ID No. 71, and the corresponding encoding gene sequence was set forth in SEQ ID No. 72; the amino acid sequence of GhNINJA was set forth in SEQ ID No. 73, and the corresponding encoding gene sequence was set forth in SEQ ID No. 74; the amino acid sequence of GhTPL was set forth in SEQ ID No. 75, and the corresponding encoding gene sequence was set forth in SEQ ID No. 76; the amino acid sequence of GhHDA6 was set forth in SEQ ID No. 77, and the corresponding encoding gene sequence was set forth in SEQ ID No. 78; and the amino acid sequence of GhCOI1 was set forth in SEQ ID No. 79, and the corresponding encoding gene sequence was set forth in SEQ ID No. 80.”

Sequence of GhMYC2 (as listed by the source): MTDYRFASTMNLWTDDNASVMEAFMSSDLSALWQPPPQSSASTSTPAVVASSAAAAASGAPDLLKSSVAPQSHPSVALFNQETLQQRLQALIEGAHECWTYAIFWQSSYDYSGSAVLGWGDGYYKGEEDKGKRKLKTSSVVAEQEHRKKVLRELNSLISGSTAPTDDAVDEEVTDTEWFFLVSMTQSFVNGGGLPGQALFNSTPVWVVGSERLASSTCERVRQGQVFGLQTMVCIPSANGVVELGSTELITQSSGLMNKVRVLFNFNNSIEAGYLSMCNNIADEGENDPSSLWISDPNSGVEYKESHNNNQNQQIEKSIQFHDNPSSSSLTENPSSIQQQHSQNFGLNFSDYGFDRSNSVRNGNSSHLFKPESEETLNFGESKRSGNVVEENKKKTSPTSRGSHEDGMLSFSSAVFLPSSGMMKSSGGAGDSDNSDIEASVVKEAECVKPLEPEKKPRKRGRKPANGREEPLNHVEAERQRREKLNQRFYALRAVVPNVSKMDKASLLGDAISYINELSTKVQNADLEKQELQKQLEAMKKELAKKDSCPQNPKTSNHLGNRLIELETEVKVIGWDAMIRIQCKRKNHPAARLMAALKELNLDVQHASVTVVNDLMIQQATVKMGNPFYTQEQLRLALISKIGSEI
Sequence of GhCOI1 (as listed by the source): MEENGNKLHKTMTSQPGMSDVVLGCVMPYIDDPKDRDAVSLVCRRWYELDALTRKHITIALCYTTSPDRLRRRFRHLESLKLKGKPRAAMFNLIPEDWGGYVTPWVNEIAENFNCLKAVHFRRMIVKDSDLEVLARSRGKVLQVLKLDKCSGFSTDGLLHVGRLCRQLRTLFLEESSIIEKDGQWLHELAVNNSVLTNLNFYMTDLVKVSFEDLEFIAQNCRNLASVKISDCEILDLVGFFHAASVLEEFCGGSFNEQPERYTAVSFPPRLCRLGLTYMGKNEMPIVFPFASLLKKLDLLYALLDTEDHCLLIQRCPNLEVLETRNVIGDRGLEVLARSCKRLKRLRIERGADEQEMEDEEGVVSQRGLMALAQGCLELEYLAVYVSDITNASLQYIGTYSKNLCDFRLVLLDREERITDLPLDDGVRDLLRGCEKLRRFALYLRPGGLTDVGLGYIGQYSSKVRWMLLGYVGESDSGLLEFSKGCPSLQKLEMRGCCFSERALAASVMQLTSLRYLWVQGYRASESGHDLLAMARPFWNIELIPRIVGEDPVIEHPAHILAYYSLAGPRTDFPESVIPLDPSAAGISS
Sequence of GhNINJA (as listed by the source): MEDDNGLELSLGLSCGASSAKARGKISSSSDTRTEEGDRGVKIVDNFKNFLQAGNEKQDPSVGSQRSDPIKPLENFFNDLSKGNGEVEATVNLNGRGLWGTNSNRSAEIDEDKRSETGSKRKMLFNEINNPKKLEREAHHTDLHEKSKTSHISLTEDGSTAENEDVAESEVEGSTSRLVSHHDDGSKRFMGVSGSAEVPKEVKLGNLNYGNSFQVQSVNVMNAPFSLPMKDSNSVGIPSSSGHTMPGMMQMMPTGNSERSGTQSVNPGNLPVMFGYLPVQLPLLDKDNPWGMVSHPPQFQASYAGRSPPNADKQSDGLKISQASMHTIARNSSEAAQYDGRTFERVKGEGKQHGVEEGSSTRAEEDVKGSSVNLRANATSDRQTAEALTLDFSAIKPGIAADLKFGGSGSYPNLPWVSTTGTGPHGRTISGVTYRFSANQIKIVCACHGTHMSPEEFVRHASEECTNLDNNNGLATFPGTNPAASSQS
Sequence of GhTPL (as listed by the source): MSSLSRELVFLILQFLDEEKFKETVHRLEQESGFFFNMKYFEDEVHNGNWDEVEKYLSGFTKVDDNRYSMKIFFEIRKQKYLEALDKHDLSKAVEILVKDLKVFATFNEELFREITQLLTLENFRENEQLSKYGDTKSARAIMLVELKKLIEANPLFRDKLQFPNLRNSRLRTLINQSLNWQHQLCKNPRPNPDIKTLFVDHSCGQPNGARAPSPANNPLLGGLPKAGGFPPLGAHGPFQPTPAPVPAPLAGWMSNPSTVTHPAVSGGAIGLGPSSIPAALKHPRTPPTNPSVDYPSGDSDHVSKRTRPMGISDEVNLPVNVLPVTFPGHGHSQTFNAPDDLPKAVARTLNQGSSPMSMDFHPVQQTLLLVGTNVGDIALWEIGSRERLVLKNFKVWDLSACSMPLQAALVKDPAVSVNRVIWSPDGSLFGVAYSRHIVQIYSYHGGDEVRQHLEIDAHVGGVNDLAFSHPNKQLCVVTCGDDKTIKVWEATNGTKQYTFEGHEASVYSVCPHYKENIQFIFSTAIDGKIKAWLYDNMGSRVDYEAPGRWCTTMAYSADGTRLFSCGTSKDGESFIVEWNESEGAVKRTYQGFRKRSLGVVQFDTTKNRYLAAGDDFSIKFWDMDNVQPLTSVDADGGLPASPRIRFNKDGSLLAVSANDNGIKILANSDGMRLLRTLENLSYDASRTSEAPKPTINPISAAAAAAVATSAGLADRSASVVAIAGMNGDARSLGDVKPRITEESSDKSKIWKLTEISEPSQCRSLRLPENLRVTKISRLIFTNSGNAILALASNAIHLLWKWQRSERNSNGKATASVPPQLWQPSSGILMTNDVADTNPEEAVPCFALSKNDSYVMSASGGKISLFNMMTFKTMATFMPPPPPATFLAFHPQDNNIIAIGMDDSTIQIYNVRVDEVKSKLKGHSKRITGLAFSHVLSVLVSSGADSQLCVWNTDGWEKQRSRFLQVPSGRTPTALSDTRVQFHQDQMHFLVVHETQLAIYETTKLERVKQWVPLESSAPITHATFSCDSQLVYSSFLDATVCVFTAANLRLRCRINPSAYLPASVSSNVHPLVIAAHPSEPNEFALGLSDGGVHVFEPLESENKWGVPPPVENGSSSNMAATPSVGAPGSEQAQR

fluorescence with GhMYC2 after applying luciferase substrate (GhMYC2 [2])	Molecule	interaction with GhTPL (GhTPL)	interaction with GhCOI1 (GhCOI1)	interaction with GhMYC2 (GhMYC2 [1])	interaction with GhNINJA (GhNINJA)
	B1	significantly weakened	significantly weakened		
weaker fluorescence	B2			weak	
	B3		significantly weakened	significantly weakened	significantly weakened
